This passage reports self-cleavage results from the RNAGym collection of RNA variant scans (doi:10.7554/elife.90254).

The chains are these.
B1: LINE1-full (parent)
chain: UACGUAGGUGGUUUUCCCCUGAUAGUGCUAAGGGGGCCUGGAAGUUUGGACUGGGCAGAGCUCAACACAGCGUGGCAAAGUGGCUGUGGCUAGACUGCCUCUCUGGAUUCCUCGUCACUCAGCAGGGCAUCUCUGAGAGAAAUGCC

In the data set the parent is B1. In words: self-cleavage, relative activity (ratio to wild type); higher = more cleavage; in vitro, sequencing; the parent is a self-cleaving ribozyme.
Consider A107G A117C, for which the self-cleavage amounted to 0.66.

For A107G A117G, the self-cleavage was determined as 1.85.

A107G A117U: the self-cleavage worked out at 1.85.

In the case of G105A A142G, the self-cleavage worked out at 1.24.

Take U102A U132C: the self-cleavage came to 1.69.

As to U100C A138G, the self-cleavage amounted to 1.83.

With U100A A136G, the self-cleavage amounted to 1.25.

On to U104A G122C, for which the self-cleavage amounted to 1.48.

For C103U A117G, the self-cleavage came out at 1.41.

With C103U A117C, the self-cleavage came to 2.49.

Turning to C103U G114A, the self-cleavage turned out to be 1.19.

As to C101U G114A, the self-cleavage is 1.37.

With U102G A129G, the self-cleavage turned out to be 0.88.

On to U102C A107U, for which the self-cleavage was 0.42.

Take U102C A107G: the self-cleavage is 1.67.

C98U U115A: the self-cleavage came out at 0.44.

For the variant C103U A107U, the self-cleavage worked out at 1.2.

On to G105A U115C, for which the self-cleavage was 1.54.

In the case of C98A U130C, the self-cleavage came to 0.13.

As for U102A A117U, the self-cleavage came out at 1.37.

For the variant U102A A117G, the self-cleavage was 1.31.

Consider A107G C131U, for which the self-cleavage stood at 1.83.

With G106A U115C, the self-cleavage was 1.43.

As for C101A U115A, the self-cleavage came to 1.36.

As for U100G A138G, the self-cleavage was 1.27.

Regarding C103A G135A, the self-cleavage turned out to be 0.87.

With U100G U130C, the self-cleavage is 2.21.

As for U102C C131A, the self-cleavage is 1.48.

Regarding G106A U108C, the self-cleavage turned out to be 1.61.

With G105A U134C, the self-cleavage stood at 1.44.

Consider G105A U134A, for which the self-cleavage was 1.54.

Consider U102A U134A, for which the self-cleavage was 1.06.

As to A107U A124G, the self-cleavage was 1.29.

A107U A124U: the self-cleavage worked out at 1.61.

G106U A117U: the self-cleavage came to 1.26.

Take U104C U143A: the self-cleavage came to 1.56.

On to U104C U143C, for which the self-cleavage is 2.1.

For the variant U100C U119A, the self-cleavage is 2.09.

With C99U A124G, the self-cleavage came out at 0.32.

As for C99U A124U, the self-cleavage came to 0.42.

Consider A107C U109C, for which the self-cleavage was determined as 2.7.

As to U100C C110A, the self-cleavage was found to be 1.77.

Regarding A107G U143C, the self-cleavage amounted to 1.38.

For A107G U130G, the self-cleavage was determined as 1.15.

Consider A107G U130A, for which the self-cleavage turned out to be 1.74.

With U104C G127A, the self-cleavage amounted to 1.47.

As for G106A A124G, the self-cleavage came to 1.81.

As to U100G G137A, the self-cleavage turned out to be 0.77.

As to G105U U108C, the self-cleavage turned out to be 1.98.

On to G105U U108A, for which the self-cleavage was found to be 1.12.

Take G106A U109C: the self-cleavage worked out at 1.86.

Take U104G: the self-cleavage came out at 1.19.

For the variant U104C, the self-cleavage amounted to 1.65.

For U104A, the self-cleavage was 1.14.

Consider U100A A140G, for which the self-cleavage amounted to 0.76.

U100A A140U: the self-cleavage came to 0.57.

On to C98U A140G, for which the self-cleavage amounted to 0.57.

On to G105U G144A, for which the self-cleavage is 1.31.

As for C98U U130C, the self-cleavage was determined as 0.5.

Turning to U102C A121U, the self-cleavage is 2.05.

Turning to C99U C101U, the self-cleavage amounted to 1.

Take U100A U130C: the self-cleavage was 2.57.

With U100A U109A, the self-cleavage is 0.76.

U102A C103U: the self-cleavage amounted to 1.41.

Take U104C U109C: the self-cleavage worked out at 1.39.

Regarding U104C U109G, the self-cleavage turned out to be 1.53.

Regarding U104A U112C, the self-cleavage was 1.32.

As to U104A U112A, the self-cleavage is 1.4.

On to U102A G127A, for which the self-cleavage was 1.08.

Take U104A A140G: the self-cleavage was found to be 0.47.

Consider A107G A138U, for which the self-cleavage is 1.44.

G97A U134C: the self-cleavage turned out to be 0.07.

In the case of U100A A107G, the self-cleavage amounted to 0.87.

U100C A129G: the self-cleavage was determined as 1.99.

As for C98A A138G, the self-cleavage amounted to 0.29.

As for C103A A140G, the self-cleavage stood at 1.23.

For the variant U104C A107G, the self-cleavage was determined as 1.86.

With U100C G127A, the self-cleavage is 1.9.

U100C G127U: the self-cleavage came to 1.84.

With U104C A136G, the self-cleavage was found to be 1.62.

For the variant A107G G126A, the self-cleavage came out at 1.71.

For C103U A138U, the self-cleavage was 1.07.

For the variant C103U A138G, the self-cleavage was found to be 1.49.

U104A U143A: the self-cleavage worked out at 0.88.

Consider U102A A121U, for which the self-cleavage came out at 1.44.

Turning to C101U U132A, the self-cleavage turned out to be 2.01.

For G106A U119C, the self-cleavage is 1.58.

On to G106A U119A, for which the self-cleavage worked out at 0.75.

As to U102A U143A, the self-cleavage amounted to 1.08.

For the variant U102A U143C, the self-cleavage was determined as 1.25.

Turning to U100A A117G, the self-cleavage was determined as 0.61.

As for U100A A117U, the self-cleavage worked out at 1.01.

Take U104C C145G: the self-cleavage amounted to 2.3.

As for C99A, the self-cleavage worked out at 0.4.

With C99U, the self-cleavage came out at 0.57.

As to C99G, the self-cleavage was found to be 0.76.

Turning to U100A C111A, the self-cleavage was 1.19.

In the case of U100A U134C, the self-cleavage was 1.12.

For C98G U102C, the self-cleavage was found to be 0.14.

On to C99U A117G, for which the self-cleavage was 0.4.

As to U102C G114A, the self-cleavage amounted to 1.21.

As for U102C G114U, the self-cleavage was found to be 1.62.

As to U100A U115A, the self-cleavage was 0.72.

Consider U102C A124G, for which the self-cleavage is 1.11.

C99A U143C: the self-cleavage was 1.03.

Consider C99A U143A, for which the self-cleavage came out at 0.84.

As to C103U U119C, the self-cleavage stood at 1.7.

A107U A140G: the self-cleavage came to 1.58.

U104C A124G: the self-cleavage amounted to 2.57.

With U100C A142C, the self-cleavage is 2.2.

Consider U104A U130C, for which the self-cleavage turned out to be 1.51.

Take U100C U112A: the self-cleavage worked out at 1.74.

Turning to A107G U109A, the self-cleavage was found to be 1.83.

On to U104G A140C, for which the self-cleavage came to 0.28.

For the variant A107U, the self-cleavage was 1.46.

As for A107C, the self-cleavage is 1.56.

On to A107G, for which the self-cleavage was 1.46.

As to C99U U108C, the self-cleavage worked out at 0.71.

U100C U143A: the self-cleavage is 1.15.

Regarding U100C U143G, the self-cleavage was determined as 2.85.

Regarding U100C U134C, the self-cleavage was 2.01.

With U100C U134A, the self-cleavage was found to be 1.83.

Take C101U A107G: the self-cleavage is 1.73.

With C99U A138G, the self-cleavage is 1.14.

For C99U A138U, the self-cleavage stood at 0.74.

Consider G97U U132A, for which the self-cleavage came out at 0.03.

For the variant U102C A117U, the self-cleavage was 1.07.

Turning to U102C A117G, the self-cleavage was 1.6.

With U104A A129G, the self-cleavage was found to be 1.27.

Turning to U104C U108A, the self-cleavage turned out to be 2.04.

Take U102C U130C: the self-cleavage worked out at 1.24.

For the variant U102C U119C, the self-cleavage worked out at 1.69.

With U102C U119A, the self-cleavage is 1.45.

Regarding C99U C145A, the self-cleavage worked out at 1.03.

Regarding G106U G126A, the self-cleavage came out at 1.15.

For C99A G114A, the self-cleavage turned out to be 0.44.

In the case of U104A C116A, the self-cleavage is 1.11.

For U104A C146U, the self-cleavage is 1.35.

G106A U112A: the self-cleavage is 1.64.

As for G106A A142U, the self-cleavage was found to be 1.29.

As to U104A U119G, the self-cleavage was 0.64.

As for U104A U119C, the self-cleavage was determined as 1.47.

Turning to U104A U134A, the self-cleavage was 1.35.

On to U104A U134C, for which the self-cleavage was 1.53.

As to U102A G125A, the self-cleavage is 1.51.

As to U102A A124G, the self-cleavage is 1.08.

For the variant U100C C131G, the self-cleavage worked out at 2.35.

For the variant U100C C131U, the self-cleavage stood at 2.27.

A107C G114A: the self-cleavage was determined as 1.74.

For the variant U100C G126C, the self-cleavage was 2.64.

For C99U C113U, the self-cleavage was determined as 0.41.

Consider A107G U115A, for which the self-cleavage was 0.95.

For the variant A107G U115C, the self-cleavage stood at 1.99.

Consider U100C C146U, for which the self-cleavage amounted to 1.71.

For the variant U104A A107G, the self-cleavage turned out to be 0.9.

For the variant U100C C113U, the self-cleavage came out at 1.7.

Take A107G U112A: the self-cleavage was found to be 1.45.

For the variant A107G U112C, the self-cleavage amounted to 1.68.

For C99U A129G, the self-cleavage is 0.89.

C101A A138G: the self-cleavage was 1.36.

Turning to U102C G125U, the self-cleavage is 1.23.

C101U A124G: the self-cleavage stood at 2.06.

In the case of C98U C123U, the self-cleavage was 0.35.

As for U100C U102A, the self-cleavage turned out to be 1.95.

C101U G139U: the self-cleavage worked out at 1.64.

For U102A G114A, the self-cleavage was 1.57.

U104C A121G: the self-cleavage was 1.56.
